PMC10214526 (ACS Central Science, 2023)
Values belong to the binder of their own block, whether it stands above or below them. Where no end group is shown, it is not given here.

How the values were obtained:
[1] = target: T1, GABARAP(ΔG116)–NHNH methyl-fumarate 2 (UniProt O95166 1-115, C-terminal acyl hydrazide: -NHNH methyl fumarate (mimics the native glycine G116)); experiment: cross-linking; competition: probe 2 (15 μM) incubated with ATG3 C1 in the presence of increasing amounts of LIR^ATG3 peptide; GABARAP–ATG3 C1 complex quantified by gel densitometry, normalized to the reaction without peptide; IC50 by nonlinear regression; settings: both partners purified
T1 construct: GABARAP; GABARAP(ΔG116): the C-terminal glycine G116 is deleted, so the chain ends at residue 115; it may fit a chain without the first methionine (surmised); also called probe 2; GABARAP methyl fumarate; not shown: Mxe GyrA intein, C-terminal, cleaved
T1 sequence (O95166 1-115, stated change not applied): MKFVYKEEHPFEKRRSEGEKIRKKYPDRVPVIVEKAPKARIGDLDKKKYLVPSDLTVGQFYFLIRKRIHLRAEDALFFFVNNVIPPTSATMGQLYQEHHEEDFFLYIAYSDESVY

[2] = target: T2, GABARAP (UniProt O95166 2-116); experiment: fluorescence polarisation; fluorescein-modified LIR^ATG3 peptide (linear, cyclized or truncated 103–111) with GABARAP or LC3A; triplicates; KD by nonlinear regression; settings: both partners purified
T2 construct: GABARAP as used in fluorescence polarization and in the cocrystal
T2 sequence (O95166 2-116): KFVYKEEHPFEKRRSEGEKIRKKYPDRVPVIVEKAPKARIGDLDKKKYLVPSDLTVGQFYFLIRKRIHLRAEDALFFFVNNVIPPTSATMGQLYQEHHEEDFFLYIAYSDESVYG

IC50 [1]: 104 µM
B1: LIR (L94-H112) peptide 5 (peptide, UniProt Q9NT62 94-112, looked up)
peptide: LEAIIEEDDGDGGWVDTYH
notes: ATG3, human, LIR motif stretch L94-H112; also called linear LIR^ATG3 peptide 5; source: synthetic peptide (chemically prepared)

IC50 [1]: 24 µM
B2: Cyclic peptide 6 (peptide)
chain: LEAIIEEDDGDGGWVDTYHC
modifications: thioether (positions not given here); not fully specified (bridges); also: cyclized by selective cysteine alkylation, partner of Cys not given here

binding result [2]: binds
B3: fluorescein-modified truncated (103–111) LIR^ATG3 peptide (peptide, UniProt Q9NT62 103-111, looked up)
peptide: GDGGWVDTY
modifications: also: fluorescein, position not given here
notes: ATG3, human, amino acids G103-Y111 including the core LIR motif; also called truncated peptide
